T1: hMUC16 peptide biotinylated either at C- or N-terminus (bio-hMUC16) (human, biotin at C- or N-terminus)
T1 construct: Captured on streptavidin-coated plates for panning and ELISA screening; also called human MUC16 peptide; MUC16 immunization peptide
T1 peptide: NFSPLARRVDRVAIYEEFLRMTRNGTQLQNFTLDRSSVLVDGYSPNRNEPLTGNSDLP


Biological target: T1, hMUC16 peptide biotinylated either at …
Assay: ELISA, crude periplasmic extracts on biotinylated hMUC16 peptide captured on streptavidin-coated wells
Method: The Core 93GG library was panned on hMUC16 peptide […] (SEQ ID NO:92) biotinylated either at C- or N-terminus (bio-hMUC16) for 4 rounds. The bio-hMUC16 peptide was allowed to interact with streptavidin coated plates after which phages from the library were added to the plate. The enrichment for antigen-specific phages was assessed after each round of panning by comparing the number of phagemid particles eluted from antigen-coated wells with the number of phagemid particles eluted from negative control wells (coated with streptavidin and blocked but containing no peptide). […] No enrichment was observed after the 1st, 3rd and 4th round. In total, 380 colonies (190 from round 3, 190 from round 4) were randomly selected and analyzed by ELISA for the presence of antigen-specific nanobodies in their periplasmic extracts (ELISA using crude periplasmic extracts including soluble nanobodies). The peptides used for ELISA screening were the same as the ones used for panning, using blocked streptavidin-coated wells without peptide as negative control. Out of these 380 colonies, 34 colonies scored positive in this assay. Based on sequence data of the positive colonies, 6 different full length nanobodies were distinguished, belonging to 2 different CDR3 groups (B-cell lineages) (see Excel file). […] Nanobodies belonging to the same CDR3 group recognize the same epitope but their other characteristics (e.g. affinity, potency, stability, expression yield, etc.) can be different. Clones from these pannings bear the following code in their name: MU.

| binding result | Binder |
| --- | --- |
| binds | Single domain anti-MUC16 R3MU119 (VHH, Tested as soluble nanobody in crude periplasmic extract; not shown: C-terminal HA tag and His6 tag of the pMECS GG vector) VHH: QVQLQESGGGLVQPGDSMRLSCAAEGDSLDGYVVGWFRQAPGKERQGVSSISGDGSMRYVADSVKGRFTISRDNAKNTVYLQMIDLKPEDTGVYYCAADPPTWDYWGQGTQVTVSS |
| binds | Single domain anti-MUC16 R3MU63 (VHH, Tested as soluble nanobody in crude periplasmic extract; not shown: C-terminal HA tag and His6 tag of the pMECS GG vector) VHH: QVQLQESGGGLVQAGDSLRLSCAASGRTVSSLFMGWFRRAPGKERELVAAISRYSLYTYYADSVKGRFTISADNAKNAVYLQMNSLKPEDTAVYYCASKLEYTSNDYDSWGQGTQVTVSS |
| binds | Single domain anti-MUC16 R3MU147 (VHH, Tested as soluble nanobody in crude periplasmic extract; not shown: C-terminal HA tag and His6 tag of the pMECS GG vector) VHH: QVQLQESGGGLVQAGESLRLSCAASGRTVSSLFMGWFRRAPGKERELVAAISRYSLYTYYADSVKGRFTISADNAKNAVYLQMNSLKPEDTAVYYCASKLEYTSNDYDSWGQGTQVTVSS |
| binds | Single domain anti-MUC16 R3MU150 (VHH, Tested as soluble nanobody in crude periplasmic extract; not shown: C-terminal HA tag and His6 tag of the pMECS GG vector) VHH: QVQLQESGGGLVQPGGSLRLSCAASGRTVSSLFMGWFRRAPGKERELVAAISRYSLYTYYADSVKGRFTISADNAKNAVYLQMNSLKPEDTAVYYCASKLEYTSNDYDSWGQGTQVTVSS |
| binds | Single domain anti-MUC16 R3MU29 (VHH, Tested as soluble nanobody in crude periplasmic extract; not shown: C-terminal HA tag and His6 tag of the pMECS GG vector) VHH: QVQLQESGGGLVQAGDSLRLSCAASGRAVSSLFMGWFRRAPGKERELVAAISRYSLYTYYADSVKGRFTISADNAKNAVYLQMNSLKPEDTAVYYCASKLEYTSNDYDSWGQGTQVTVSS |
| binds | single domain anti-MUC16 binder R3MU4 (VHH, Tested as soluble nanobody in crude periplasmic extract; not shown: C-terminal HA tag and His6 tag of the pMECS GG vector) VHH: QVQLQESGGGLVQAGGSLRLSCAASGRTVSSLFMGWFRQAPGKERELVAAISRYSLYTYYADSVKGRFTISADNAKNAVYLQMNSLKPEDTAVYYCASKLEYTSNDYDSWGQGTQVTVSS |
